This note sets out measurements from the supplement of paper PMC11246515.

± gives the standard deviation of the averaged measurements.

A short description of the data set: total protein half-life in vivo (active degradation + dilution); higher = more stable protein.
Where [1] appears, read: E. coli NCM3722 delta-clpP delta-lon delta-hslV, growth: N-lim chemostat, doubling time 6 h.
The mark [2] stands for this setting: E. coli NCM3722 delta-clpP, growth: N-lim chemostat, doubling time 6 h.
The mark [3] stands for this setting: E. coli NCM3722 delta-hslV, growth: N-lim chemostat, doubling time 6 h.
The mark [4] stands for this setting: E. coli NCM3722 delta-lon, growth: N-lim chemostat, doubling time 6 h.
Where [5] appears, read: E. coli NCM3722 delta-smpB, growth: N-lim chemostat, doubling time 6 h.
Setting [6] is: wild type E. coli NCM3722, growth: C-lim chemostat, doubling time 3 h.
Setting [7] is: wild type E. coli NCM3722, growth: C-lim chemostat, doubling time 6 h.
Setting [8] is: wild type E. coli NCM3722, growth: C-lim chemostat, doubling time 12 h.
The mark [9] stands for this setting: wild type E. coli NCM3722, growth: N-lim chemostat, doubling time 6 h.
Setting [10] is: wild type E. coli NCM3722, growth: N-lim chemostat, doubling time 12 h.
Setting [11] is: wild type E. coli NCM3722, growth: P-lim chemostat, doubling time 6 h.
Where [12] appears, read: wild type E. coli NCM3722, growth: P-lim chemostat, doubling time 12 h.

For the sequence “MKTKLNELLEFPTPFTYKVMGQALPELVDQVVEVVQRHAPGDYTPTVKPSSKGNYHSVSITINATHIEQVETLYEELGKIDIVRMVL [P0A8J4]”, the “total protein half-life in vivo” value under setting [1] came to 3.54 ± 1.3 h; the “total protein half-life in vivo” value under setting [2] was determined as 2.19 ± 0.44 h; the “total protein half-life in vivo” value under setting [3] turned out to be 1.24 h; the “total protein half-life in vivo” value under setting [4] turned out to be 2.23 ± 0.17 h; the “total protein half-life in vivo” value under setting [5] was determined as 1.42 ± 0.17 h; the “total protein half-life in vivo” value under setting [6] was determined as 2.1 h. The “total protein half-life in vivo” value came out at 2.72 h under setting [7]; 3.05 h under setting [8]; 1.34 h under setting [9]; 1.54 h under setting [10]; 2.04 ± 0.064 h under setting [11]; 3.43 ± 0.32 h under setting [12].

In the case of “MSSFQFEQIGVIRSPYKEKFAVPRQPGLVKSANGELHLIAPYNQADAVRGLEAFSHLWILFVFHQTMEGGWRPTVRPPRLGGNARMGVFATRSTFRPNPIGMSLVELKEVVCHKDSVILKLGSLDLVDGTPVVDIKPYLPFAESLPDASASYAQSAPAAEMAVSFTAEVEKQLLTLEKRYPQLTLFIREVLAQDPRPAYRKGEETGKTYAVWLHDFNVRWRVTDAGFEVFALEPR”, the “total protein half-life in vivo” value by setting is: under setting [1], 5 ± 0.19 h; under setting [2], 4.77 ± 0.35 h; under setting [3], 4.77 ± 0.049 h; under setting [4], 5.29 ± 0.31 h; under setting [5], 5.06 ± 0.3 h; under setting [6], 2.89 ± 0.41 h. Besides, the “total protein half-life in vivo” value is, setting by setting: under setting [7], 5.88 ± 0.54 h; under setting [8], 9.48 ± 0.38 h; under setting [9], 4.98 ± 0.3 h; under setting [10], 10.1 ± 2.3 h; under setting [11], 6.19 ± 0.56 h; under setting [12], 13.5 ± 1.7 h.

For “MIERGKFRSLTLINWNGFFARTFDLDELVTTLSGGNGAGKSTTMAAFVTALIPDLTLLHFRNTTEAGATSGSRDKGLHGKLKAGVCYSMLDTINSRHQRVVVGVRLQQVAGRDRKVDIKPFAIQGLPMSVQPTQLVTETLNERQARVLPLNELKDKLEAMEGVQFKQFNSITDYHSLMFDLGIIARRLRSASDRSKFYRLIEASLYGGISSAITRSLRDYLLPENSGVRKAFQDMEAALRENRMTLEAIRVTQSDRDLFKHLISEATNYVAADYMRHANERRVHLDKALEFRRELHTSRQQLAAEQYKHVDMARELAEHNGAEGDLEADYQAASDHLNLVQTALRQQEKIERYEADLDELQIRLEEQNEVVAEAIERQQENEARAEAAELEVDELKSQLADYQQALDVQQTRAIQYNQAIAALNRAKELCHLPDLTADCAAEWLETFQAKELEATEKMLSLEQKMSMAQTAHSQFEQAYQLVVAINGPLARNEAWDVARELLREGVDQRHLAEQVQPLRMRLSELEQRLREQQEAERLLADFCKRQGKNFDIDELEALHQELEARIASLSDSVSNAREERMALRQEQEQLQSRIQSLMQRAPVWLAAQNSLNQLSEQCGEEFTSSQDVTEYLQQLLEREREAIVERDEVGARKNAVDEEIERLSQPGGSEDQRLNALAERFGGVLLSEIYDDVSLEDAPYFSALYGPSRHAIVVPDLSQVTEHLEGLTDCPEDLYLIEGDPQSFDDSVFSVDELEKAVVVKIADRQWRYSRFPEVPLFGRAARESRIESLHAEREVLSERFATLSFDVQKTQRLHQAFSRFIGSHLAVAFESDPEAEIRQLNSRRVELERALSNHENDNQQQRIQFEQAKEGVTALNRILPRLNLLADDSLADRVDEIRERLDEAQEAARFVQQFGNQLAKLEPIVSVLQSDPEQFEQLKEDYAYSQQMQRDARQQAFALTEVVQRRAHFSYSDSAEMLSGNSDLNEKLRERLEQAEAERTRAREALRGHAAQLSQYNQVLASLKSSYDTKKELLNDLQRELQDIGVRADSGAEERARIRRDELHAQLSNNRSRRNQLEKALTFCEAEMDNLTRKLRKLERDYFEMREQVVTAKAGWCAVMRMVKDNGVERRLHRRELAYLSADDLRSMSDKALGALRLAVADNEHLRDVLRMSEDPKRPERKIQFFVAVYQHLRERIRQDIIRTDDPVEAIEQMEIELSRLTEELTSREQKLAISSRSVANIIRKTIQREQNRIRMLNQGLQNVSFGQVNSVRLNVNVRETHAMLLDVLSEQHEQHQDLFNSNRLTFSEALAKLYQRLNPQIDMGQRTPQTIGEELLDYRNYLEMEVEVNRGSDGWLRAESGALSTGEAIGTGMSILVMVVQSWEDESRRLRGKDISPCRLLFLDEAARLDARSIATLFELCERLQMQLIIAAPENISPEKGTTYKLVRKVFQNTEHVHVVGLRGFAPQLPETLPGTDEAPSQAS”, the “total protein half-life in vivo” value is, setting by setting: under setting [1], 6.61 ± 0.52 h; under setting [2], 6.45 ± 0.38 h; under setting [3], 4.36 ± 0.13 h; under setting [4], 4.16 ± 0.34 h; under setting [5], 4.2 ± 0.079 h; under setting [6], 2.91 ± 0.16 h. Further, the “total protein half-life in vivo” value runs as follows: under setting [7], 5.16 ± 0.064 h; under setting [8], 8.24 ± 0.095 h; under setting [9], 4.374 ± 0.017 h; under setting [10], 5.78 ± 0.3 h; under setting [11], 4.74 ± 0.084 h; under setting [12], 6.65 ± 0.25 h.

Take “MLSKFKRNKHQQHLAQLPKISQSVDDVDFFYAPADFRETLLEKIASAKQRICIVALYLEQDDGGKGILNALYEAKRQRPELDVRVLVDWHRAQRGRIGAAASNTNADWYCRMAQENPGVDVPVYGVPINTREALGVLHFKGFIIDDSVLYSGASLNDVYLHQHDKYRYDRYHLIRNRKMSDIMFEWVTQNIMNGRGVNRLDDVNRPKSPEIKNDIRLFRQELRDAAYHFQGDADNDQLSVTPLVGLGKSSLLNKTIFHLMPCAEQKLTICTPYFNLPAILVRNIIQLLREGKKVEIIVGDKTANDFYIPEDEPFKIIGALPYLYEINLRRFLSRLQYYVNTDQLVVRLWKDDDNTYHLKGMWVDDKWMLITGNNLNPRAWRLDLENAILIHDPQLELAPQREKELELIREHTTIVKHYRDLQSIADYPVKVRKLIRRLRRIRIDRLISRIL”: the “total protein half-life in vivo” value runs as follows: under setting [1], 5.434 ± 0.046 h; under setting [2], 5.74 ± 0.068 h; under setting [3], 5.18 ± 0.38 h; under setting [4], 5.91 ± 0.5 h; under setting [5], 4.896 ± 0.011 h; under setting [6], 2.97 ± 0.26 h. The “total protein half-life in vivo” value under setting [7] amounted to 5.64 ± 0.11 h; the “total protein half-life in vivo” value under setting [8] amounted to 9.36 ± 0.81 h; the “total protein half-life in vivo” value under setting [9] came out at 5.01 ± 0.21 h; the “total protein half-life in vivo” value under setting [10] stood at 8.57 ± 0.86 h; the “total protein half-life in vivo” value under setting [11] turned out to be 6.41 ± 0.85 h; the “total protein half-life in vivo” value under setting [12] is 12 ± 1.5 h.

As to “MSRKQLALFEPTLVVQALKEAVKKLNPQAQWRNPVMFIVWIGSLLTTCISIAMASGAMPGNALFSAAISGWLWITVLFANFAEALAEGRSKAQANSLKGVKKTAFARKLREPKYGAAADKVPADQLRKGDIVLVEAGDIIPCDGEVIEGGASVDESAITGESAPVIRESGGDFASVTGGTRILSDWLVIECSVNPGETFLDRMIAMVEGAQRRKTPNEIALTILLIALTIVFLLATATLWPFSAWGGNAVSVTVLVALLVCLIPTTIGGLLSAIGVAGMSRMLGANVIATSGRAVEAAGDVDVLLLDKTGTITLGNRQASEFIPAQGVDEKTLADAAQLASLADETPEGRSIVILAKQRFNLRERDVQSLHATFVPFTAQSRMSGINIDNRMIRKGSVDAIRRHVEANGGHFPTDVDQKVDQVARQGATPLVVVEGSRVLGVIALKDIVKGGIKERFAQLRKMGIKTVMITGDNRLTAAAIAAEAGVDDFLAEATPEAKLALIRQYQAEGRLVAMTGDGTNDAPALAQADVAVAMNSGTQAAKEAGNMVDLDSNPTKLIEVVHIGKQMLMTRGSLTTFSIANDVAKYFAIIPAAFAATYPQLNALNIMCLHSPDSAILSAVIFNALIIVFLIPLALKGVSYKPLTASAMLRRNLWIYGLGGLLVPFIGIKVIDLLLTVCGLV”, the “total protein half-life in vivo” value runs as follows: under setting [2], 5.05 h; under setting [3], 5.02 h; under setting [4], 6.41 h; under setting [5], 3.79 h; under setting [6], 2.79 h; under setting [8], 11.5 h. In addition, the “total protein half-life in vivo” value is, setting by setting: under setting [10], 7.13 ± 1.7 h; under setting [11], 7.01 ± 1.2 h; under setting [12], 10.4 ± 0.27 h.
